Assay results taken from US20260108607A1 (BEIJING DCTY BIOTECH, published 2026).
Where a chain is given by its changes, count along the chain named.

B1: 20-2-49 (antibody, V domains shown)
VH: QVQLQQSGAELAKPGASVKMSCKASAYTFTTYWMHWVKQRPGQGLEWIGYINPNTAYTEYNQNFKDKATLTADKSSSTAYMQLGSLTSEDSAVYYCARGAYYRTYYAMDYWGQGTSVTVSS
VL: DIVLTQSPASLAVSLGQRATISCKASQSVDYDGDSYMNWYQQKPGQPPKLLIYAASNLESGIPARFSGSGSGTDFTLNIHPVEEEDAATYYCLQSNEDPYTFGGGTRLEIN
notes: also called 121E9D12
B2: 20-2-55 (antibody, V domains shown)
VH: QIQLQQSGPELVKPGASVKISCKASGYSFTDYYINWVKQKPGQGLEWIGWIYPGSGNTKYNEKFKGKATLTVDTSSSTAYMQLNSLTSEDTAVYFCARSSRCDFWGQGTTLTVSS
VL: DIQMTQSASSFSVSLGDSVTITCKASEDIYNRLAWYQQKPGNTPRLLISGATSLETGVPSRFSGSGSGKDYTLSITSLQTEDVATYYCQQYWSSPLTFGSGTKLELK
notes: also called 136C11E7
B3: 20-2-37 (antibody, V domains shown)
VH: EVMLVESGGGLVKPGGSLKLSCAASRFTFSNYAMSWVRQTPEKRLEWVATITSGGSYTYYPDSVKGRFTISRDNAKNTLYLQMSSLRSEDTAMYYCARKDYGNYWFAYWGQGTLVTVSA
VL: DVVMTQTPLSLPVSLGDQASISCRSSQSLVHSDGNTYLHWYLQKPGQSPKLLIYKVSNRFSGVPDRFSGSGSGTDFTLKISRVEAEDLGVYFCSQSIHVPWTFGGGTKLEIK
notes: also called 98B10B12
B4: 20-2-43 (antibody, V domains shown)
VH: DVQLQESGPDLVKPSQSLSLNCTVTGYSITSGYSWHWIRQFPGNKLEWMGYIHYSGSTNYNPPLKSRIFIARDTSKNQFFLQLTSVTTEDTATYYCARGVVSNYAMGNWGQGTSVTVSS
VL: ETTVTQSPASLSMAIGEKVTIRCITNTDIDDDMNWYQQKPGEPPKLLISEGNTLRPGVPSRFSSSGYGTDFVFTIENMLSEDVADYYCLQSDDLPLTFGSGTKLEIK
notes: also called 115A10H4
B5: 20-2-52 (antibody, V domains shown)
VH: QIQLVQSGPELKKPGETVKISCKASGYTFINYGMNWVKQTPGKGLKWMGWINTYTGEPTYADDFKGRFAFSLETSASTAYLQINNLKNEDMATYFCSREEFYSRGAMDYWGQGTSVTVSS
VL: DVLMTQTPLSLPVSLGDQASISCRSSQFIVHSNGNTYLEWYLQKPGQSPKLLIYKISNRFSGVPDRFSGSGSGTDFTLKISRVEAEDLGVYYCFQGSHVPFTFGSGTKLEIK
notes: also called 124A5F2
B6: 20-2-13 (antibody, V domains shown)
VH: QVQLQQPGAELVKPGASVKLSCKASGYSFTRYWMHWVKQRPGQGLEWIGEINPSNGRANYNEKFMSKATLTVDKSSSTAYMQLSSLTSEDSAVYYCARGREITTGFAYWGQGTLVTVSA
VL: SIVMTQTPKFLLVSAGDRVTITCKASQSVSNDVVWYQQKPGQSPKLLIYYASNRYTGVPDRFTGSGYGTDFTFTITTVQAEDLAVYFCQQDYSSPWTFGGGTKLEIK
notes: also called 90F6C1
B7: murine antibody 20-2-1 (clone 83F7B2) (antibody, V domains shown)
VH: QIQLVQSGPELKKPGETVKISCKASGYTFTDFSMHWVKQAPGKGLKWMGWINTETGEPSYADDFKGRFAFSLETSASTAYLQINNLKNEDTATYFCANYGYDVRGDYWGQGTTLTVSS
VL: EIVLTQSPTTMAASPGEKITITCSASSSISSNYLHWYQQKPGFSPKLLIYGTSNLASGVPARFSGSGSGTSYSLTIGTMEAEDVATYYCHQGSSIPLTFGAGTKLELK
notes: Murine monoclonal antibody purified from the subclone supernatant
B8: 20-2-7 (antibody, V domains shown)
VH: B7 VH with F32Y, M34I, S59T, A97S
VL: B7 VL with K18N, S28G, K46E, G51S, S94D, K104R
notes: also called 89C2A11
B9: 20-2-25 (antibody, V domains shown)
VH: EVQLQQSGAELVRPGALVKLSCKASGFNIKDYYMHWVKQRPEQGLEWIGWIDPENGNTIYDPKFQGKASITADTSSNTAYLQLSSLTSEDTAVYYCARGYLVYWGQGTLVTVSA
VL: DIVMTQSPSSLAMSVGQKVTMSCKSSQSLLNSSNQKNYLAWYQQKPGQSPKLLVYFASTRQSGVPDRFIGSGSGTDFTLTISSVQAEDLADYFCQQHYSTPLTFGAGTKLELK
notes: the antibody in the subclone supernatant, not the CAR m26; also called 70B6F6H11
B10: 20-2-16 (antibody, V domains shown)
VH: B9 VH with S69T
VL: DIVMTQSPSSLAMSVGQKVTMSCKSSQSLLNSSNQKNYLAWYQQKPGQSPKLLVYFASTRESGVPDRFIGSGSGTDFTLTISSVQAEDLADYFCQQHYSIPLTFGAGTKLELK
notes: also called 90H3D2
B11: 20-2-19 (antibody, V domains shown)
VH: B9 VH with V102A
VL: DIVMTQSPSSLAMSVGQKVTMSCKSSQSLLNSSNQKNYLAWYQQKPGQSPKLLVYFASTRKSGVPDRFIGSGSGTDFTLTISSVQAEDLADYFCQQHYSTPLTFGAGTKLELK
notes: also called 53H2H7 (recombinantly expressed)
B12: 20-2-31 (antibody, V domains shown)
VH: B9 VH
VL: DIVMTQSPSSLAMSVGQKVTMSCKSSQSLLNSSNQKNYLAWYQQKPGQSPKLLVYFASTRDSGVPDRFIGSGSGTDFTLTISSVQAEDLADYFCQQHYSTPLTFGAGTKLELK
notes: also called 95G10G8E4
B13: 20-2-34 (antibody, V domains shown)
VH: B9 VH
VL: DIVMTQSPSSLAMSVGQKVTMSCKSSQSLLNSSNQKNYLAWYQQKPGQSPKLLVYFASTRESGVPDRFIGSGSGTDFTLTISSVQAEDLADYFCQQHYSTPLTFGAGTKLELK
notes: the antibody in the subclone supernatant, not the CAR m28; also called 84G9F9
B14: 20-2-22 (antibody, V domains shown)
VH: B9 VH with Y80C, Y100W, L101F, V102A
VL: DILMTQSPSSLAMSVGQKVTMSCKSSQSLLNSSNQKNHLAWYQQKPGQSPKLLVYFASTRQSGVPDRFIGSGSGTDFTLTISSVQAEDLADYFCQQHYSTPLTFGAGTKLELK
notes: also called 57D8C3
B15: 20-2-10 (antibody, V domains shown)
VH: B9 VH with E10D, M34L, V102T
VL: B14 VL with L3V, S22N, S28N, H38Y, Y42F, Q61Y, I69M, I81V
notes: also called 75H11B1
B16: murine antibody 20-2-28 (clone 84C3G8H7) (antibody, V domains shown)
VH: B9 VH with Y100W, L101F, V102A
VL: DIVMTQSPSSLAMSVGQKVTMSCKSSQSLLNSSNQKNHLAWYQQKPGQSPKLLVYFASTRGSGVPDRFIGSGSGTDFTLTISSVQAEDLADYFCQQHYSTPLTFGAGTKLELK
notes: Murine monoclonal antibody purified from the subclone supernatant; also called clone #28
B17: murine antibody 20-2-4 (clone 88A3C8) (antibody, V domains shown)
VH: B9 VH with Y100W, L101F, V102A
VL: B14 VL with Q61A
notes: Murine monoclonal antibody purified from the subclone supernatant; also called clone #4
B18: chimeric-VH + VL of clone 20-2-40-2 (98G2E9) (antibody, V domains shown)
VH: B3 VH with M3L, R26G, N31G
VL: B3 VL with S96T, I97T, H98Q
notes: also called clone #40-2
B19: humanized antibody 40-2-H11 (98G2E9-VH5 + VL7) (scFv)
scFv: EVQLLESGGGLVQPGGSLKLSCAASGFTFSGYAMSWVRQTPGKGLEWVATITSGGSYTYYPDSVKGRFTISRDNSKNTLYLQMNSLRAEDTAMYYCARKDYGNYWFAYWGQGTLVTVSSGGGGSGGGGSGGGGSGGGGSDVVMTQSPLSLPVTLGDQASISCRSSQSLVHSDGNTYLHWYLQKPGQSPKLLIYKVSNRFSGVPDRFSGSGSGTDFTLKISRVEAEDVGVYFCSQTTQVPWTFGGGTKLEIK
notes: the format in the SPR assay is not clearly stated
B20: humanized antibody 28-H3 (84C3G8H7-VH3 + VL1) (scFv)
scFv: QVQLVQSGAEVKKPGASVKVSCKASGFNIKDYYMHWVRQAPGQRLEWIGWIDPENGNTIYDPKFQGRATITADTSASTAYMELSSLRSEDTAVYYCARGWFAYWGQGTLVTVSSGGGGSGGGGSGGGGSGGGGSDIVMTQSPDSLAVSLGERATINCKSSQSLLNSSNQKNHLAWYQQKPGQPPKLLIYFASTRASGVPDRFSGSGSGTDFTLTISSLQAEDVAVYYCQQHYSTPLTFGGGTKLELK
notes: as for B19
B21: humanized antibody 28-H9 (84C3G8H7-VH4 + VL1(PTM)) (scFv)
scFv: B20 scFv with R38K, S77N, A195G
notes: as for B19
B22: humanized antibody 28-H8 (84C3G8H7-VH3 + VL2(PTM)) (scFv)
scFv: B20 scFv with I188V, A195G, Y227F
notes: as for B19
B23: humanized antibody 28-H5 (84C3G8H7-VH4 + VL1) (scFv)
scFv: B20 scFv with R38K, S77N
notes: as for B19
B24: humanized antibody 28-H4 (84C3G8H7-VH3 + VL2) (scFv)
scFv: B20 scFv with I188V, Y227F
notes: as for B19
B25: humanized antibody 28-H7 (84C3G8H7-VH3 + VL1(PTM)) (scFv)
scFv: B20 scFv with A195G
notes: as for B19
B26: 84C3G8H7-chimeric-scFv (20-2-28) (scFv, V domains shown)
VH: B9 VH with Y100W, L101F, V102A
VL: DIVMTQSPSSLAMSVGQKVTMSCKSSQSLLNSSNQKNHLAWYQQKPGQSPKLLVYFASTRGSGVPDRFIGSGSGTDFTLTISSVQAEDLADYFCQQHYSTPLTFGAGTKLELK

Biological target: T1, EGFR (wild type) expressed on target cells (UniProt P00533 25-1210, limits assumed)
T1 construct: whole, on cells; also called F98npEGFR; U87MG-EGFR
Experiment: flow cytometry of the subclone supernatant on F98npEGFR cells (Geom mean)

binding result	Binder
no binding	B1
no binding	B2
no binding	B3
no binding	B4
no binding	B5
no binding	B6
no binding	B7
no binding	B8
no binding	B9
no binding	B10
no binding	B11
no binding	B12
no binding	B13
no binding	B14
no binding	B15
no binding	B16
no binding	B17

Biological target: T2, EGFRvIII target antigen (SPR ligand) (UniProt P00533 25-645, limits assumed)
T2 construct: also called EGFRvIII antigen
Experiment: SPR; antibody as analyte

Kd	koff	kon	Binder
49.9 nM	0.00181 s⁻¹	36200 M⁻¹ s⁻¹	B18
138 nM	0.00343 s⁻¹	24800 M⁻¹ s⁻¹	B19

Biological target: T2, EGFRvIII target antigen (SPR ligand)
Experiment: SPR; EGFRvIII as ligand, antibody as analyte

Kd	koff	kon	Binder
23.7 nM	0.00119 s⁻¹	50100 M⁻¹ s⁻¹	B7
–	0.0165 s⁻¹	–	B16
–	0.00864 s⁻¹	–	B17

Biological target: T2, EGFRvIII target antigen (SPR ligand)
Experiment: SPR; antibody as analyte
Remark: another data set of the same source

Kd	koff	kon	Binder
167 nM	0.0221 s⁻¹	132000 M⁻¹ s⁻¹	B20
47.5 nM	0.00665 s⁻¹	140000 M⁻¹ s⁻¹	B21
72.6 nM	0.0103 s⁻¹	142000 M⁻¹ s⁻¹	B22
80.3 nM	0.00891 s⁻¹	111000 M⁻¹ s⁻¹	B23
154 nM	0.0206 s⁻¹	134000 M⁻¹ s⁻¹	B24
77.2 nM	0.0112 s⁻¹	146000 M⁻¹ s⁻¹	B25
59 nM	0.00883 s⁻¹	150000 M⁻¹ s⁻¹	B26

Biological target: T3, EGFRvIII overexpressed on target cells (UniProt P00533 25-1210)
T3 construct: whole, on cells; Same protein on two cell lines: F98npEGFRvIII for flow cytometry, U87MG-EGFRvIII for the killing assays; also called F98npEGFRvIII; U87MG-EGFRvIII
Experiment: flow cytometry of the subclone supernatant on F98npEGFRvIII cells (Geom mean)

binding result	Binder
binds	B1
binds	B2
binds	B5
binds	B6
binds	B8
binds	B9
binds	B10
binds	B11
binds	B12
binds	B13
binds	B14
binds	B15

Biological target: T2, EGFRvIII target antigen (SPR ligand)
Experiment: SPR

fold reduction of affinity against the murine antibody from clone #40-2	Binder
~2 fold	B19
